Reference: patent US20260241049A1, “Radiopharmaceutical Compositions Targeting Glypican-3 and Uses Thereof” (RayzeBio, Inc., priority 2023, published 2026)
Starred links: 1 amine or outer side, 2 acyl side, 3 side chain; linkers in the order of their positions; H or OH if unused. Positions of bridges follow the written chain, without caps; N, C: chain ends. Non-standard residues stand in square brackets, D forms with d. Residues, ends and D or L forms follow the SMILES beside them. Groups on a side chain read outwards from the residue. Primed or numbered codes have the meaning given here. *: point of attachment. F4aao(3) = 4-(carboxymethoxy)-L-phenylalanine ((S)-2-amino-3-(4-(carboxymethoxy)phenyl)propanoic acid), O=C([C@H](Cc1ccc(OCC(=O)[*:3])cc1)N[*:1])[*:2]; DOTA‑Lu = DOTA-lutetium(175) amide on the side-chain amine, O=C([O-])CN1CCN(CC(=O)[O-])CCN(CC(=O)*)CCN(CC(=O)[O-])CC1.[175Lu+3]; MeHseMe(3) = N-methyl-O-methyl-homoserine, 4-methoxy-2-(methylamino)butanoic acid, COCC[C@@H](C(=O)[*:2])N(C)[*:1]; Thr(Me) = O-methyl threonine, (3R)-2-amino-3-methoxybutanoic acid, CO[C@H](C)[C@H](N[*:1])C(=O)[*:2]; F4aao = 4-(carboxymethoxy)-L-phenylalanine, O=C([C@H](Cc1ccc(OCC(=O)[*:3])cc1)N[*:1])[*:2]; DOTA‑Lu″ = DOTA chelate of lutetium (175Lu), attached as an amide to the side-chain amine; MeHseMe = N-methyl-O-methyl-L-homoserine, COCC[C@@H](C(=O)[*:2])N(C)[*:1]; Phe(4-(1-Me-pyrazol-4-yl)) = Cn1cc(-c2ccc(C[C@H](N)C(=O)O)cc2)cn1; DOTA‑Lu(3) = DOTA chelate with cold lutetium-175, amide-linked; TMe = O-methyl-L-threonine, CO[C@H](C)[C@H](N[*:1])C(=O)[*:2]; NMeAla(isoquinolin-7-yl) = CN[C@@H](Cc1ccc2ccncc2c1)C(=O)O; DOTA = O=C(O)CN1CCN(CC(=O)O)CCN(CC(=O)*)CCN(CC(=O)O)CC1; Phe(4-CH2COOH) = N[C@@H](Cc1ccc(CC(=O)O)cc1)C(=O)O; Phe(4-NHCONH2) = NC(=O)Nc1ccc(C[C@H](N)C(=O)O)cc1; 3Pal(6-Ph) = N[C@@H](Cc1ccc(-c2ccccc2)nc1)C(=O)O; Phe(4-COOH) = N[C@@H](Cc1ccc(C(=O)O)cc1)C(=O)O; NMe2Nal = CN[C@@H](Cc1ccc2ccccc2c1)C(=O)O; NMeI = CC[C@H](C)[C@H](NC)C(=O)O; NMeQ = CN[C@@H](CCC(N)=O)C(=O)O; NMeK = CN[C@@H](CCCCN)C(=O)O; NMeC = CN[C@@H](CS)C(=O)O; Carboxymethyl = O=C(O)C*; NMeA = CN[C@@H](C)C(=O)O

B1: Macrocyclic peptide of Example 2-23 (SEQ ID No. 43) (peptide)
peptide: {CH2CO}-[NMeA][NMeQ]D[NMeQ][Phe(4-COOH)]II[Phe(4-COOH)][NMe2Nal]G[3Pal(6-Ph)][NMeC]-NH2
modifications: thioether N-12
SMILES: CC[C@H](C)[C@@H]1NC(=O)[C@H](Cc2ccc(C(=O)O)cc2)NC(=O)[C@H](CCC(N)=O)N(C)C(=O)[C@H](CC(=O)O)NC(=O)[C@H](CCC(N)=O)N(C)C(=O)[C@H](C)N(C)C(=O)CSC[C@@H](C(N)=O)N(C)C(=O)[C@H](Cc2ccc(-c3ccccc3)nc2)NC(=O)CNC(=O)[C@H](Cc2ccc3ccccc3c2)N(C)C(=O)[C@H](Cc2ccc(C(=O)O)cc2)NC(=O)[C@H]([C@@H](C)CC)NC1=O
B2: Lu-C-31 (peptide)
peptide: Ac-[NMeK](DOTA‑Lu)[NMeI]D[NMeQ][Phe(4-COOH)][TMe]I[F4aao][NMeAla(isoquinolin-7-yl)]G[3Pal(6-Ph)][NMeC][dE]-NH2
modifications: bridge N-12; not fully specified (bridges); printed as MeK(DOTA-Lu)-MeI-D-MeQ-F4COO-TMe-I-F4aao-MeNal27N-G-3Py6Ph-MeC-de-NH2
B3: Macrocyclic peptide of Example 2-21 (SEQ ID No. 39) (peptide)
peptide: {CH2CO}-[NMeQ][MeHseMe]D[NMeQ][Phe(4-COOH)][Thr(Me)]I[Phe(4-NHCONH2)][NMe2Nal]G[3Pal(6-Ph)][NMeC]-NH2
modifications: thioether N-12
SMILES: CC[C@H](C)[C@@H]1NC(=O)[C@H]([C@@H](C)OC)NC(=O)[C@H](Cc2ccc(C(=O)O)cc2)NC(=O)[C@H](CCC(N)=O)N(C)C(=O)[C@H](CC(=O)O)NC(=O)[C@H](CCOC)N(C)C(=O)[C@H](CCC(N)=O)N(C)C(=O)CSC[C@@H](C(N)=O)N(C)C(=O)[C@H](Cc2ccc(-c3ccccc3)nc2)NC(=O)CNC(=O)[C@H](Cc2ccc3ccccc3c2)N(C)C(=O)[C@H](Cc2ccc(NC(N)=O)cc2)NC1=O

What follows are molecules tested against Human Glypican3-Fc (Homo sapiens, UniProt P51654) (assay: SPR binding to Glypican-3, Method B-2 (Glypican3-Fc captured by anti-human IgG (Fc) antibody on CM3 chip)). Conditions: SPR method B-2.
Description: (§1) A CM3 sensor chip (Cytiva) was inserted into a Biacore T200 (Cytiva), primed three times with a running buffer: HBS-P-+, pH 7.4 (Cytiva), and equilibrated at a flow rate of 30 μL/min. Using the Anti-Fc Capture Kit (Cytiva), 50 LL each of 60 mM EDC solution (Cytiva) and 650 mM NHS solution (Cytiva) were mixed, and then reacted at a flow rate of 10 μL/min for 420 seconds, 150 μL of […] Anti-human IgG (Fc) Antibody solution was prepared by diluting with 10 mM acetic acid solution (pH 5.0), reacted at a flow rate of 10 μL/min for 420 seconds, and immobilized on a CM3 sensor chip. After immobilization, 1.0 M ethanolamine aqueous solution (Cytiva) was allowed to react for 420 seconds at a flow rate of 10 μL/min for capping. Human Glypican3-Fc (ACRO Biosystems, GP3-H5258) was allowed to react for 60 seconds at a flow rate of 10 μL/min. After capturing human Glypican3-Fc, a peptide solution prepared to 10 mM in DMSO solution was diluted with a running buffer to a final concentration of 10 μM. After that, 5 serial dilution series (100 nM, 50 nM, 25 nM, 10 nM, 5 nM) of peptide solutions were prepared. Using the above samples, peptide kinetics for Glypican3 was obtained by SPR measurement. Kinetics evaluation of Glypican3 was performed by SPR measurements at a flow rate of 10 μL/min. setting the association time to 120 seconds and the disassociation time to 600 seconds.
The obtained data by Method B-1, Method B-2, Method B-3 and Method B-4 were analyzed by follow. Single Cycle Kinetics was used as the kinetics evaluation model, and curve fitting was performed using Biacore T200 Evaluation Software Version 3.0 (Cytiva). The obtained sensorgram was subjected to curve fitting by the method of least squares and obtained KD values of the macrocyclic peptides in this disclosure for Glypican 3 protein are shown in Table 18.

Q: How did the Kd turn out when `CC[C@H](C)[C@@H]1NC(=O)[C@H]([C@@H](C)OC)NC(=O)[C@H](Cc2ccc(C(=O)O)cc2)NC(=O)[C@H](CCC(N)=O)N(C)C(=O)[C@H](CC(=O)O)NC(=O)[C@H]([C@@H](C)CC)N(C)C(=O)[C@H](CCCCNC(=O)CN2CCN(CC(=O)O)CCN(CC(=O)O)CCN(CC(=O)O)CC2)N(C)C(=O)CSC[C@@H](C(N)=O)N(C)C(=O)[C@H](Cc2ccc(-c3ccccc3)nc2)NC(=O)CNC(=O)[C@H](Cc2ccc3ccncc3c2)N(C)C(=O)[C@H](Cc2ccc(OCC(=O)O)cc2)NC1=O` [Lu-C-30] ({CH2CO}-[NMeK](DOTA)[NMeI]D[NMeQ][Phe(4-COOH)]T(Me)IY(Carboxymethyl)[NMeAla(isoquinolin-7-yl)]G[3Pal(6-Ph)][NMeC]-NH2; thioether N-12) was run?
A: 0.7 nM

These molecules were tested against T1, Human Glypican3-Fc (ACRO Biosystems, GP3-H5258) (human, UniProt P51654 25-559) (assay: SPR (Biacore T200), Method B-2: human Glypican3-Fc captured by anti-human Fc on CM3 chip, peptide as analyte). Conditions: not given.
T1 construct: Bought fusion protein, captured in Methods B-2, B-3 and B-4; Catalogue number is printed only in Method B-2; not shown: Fc part of the bought fusion
Description: as §1, with “After that, 5 serial dilution series (100 nM, 50 nM, 25 nM, 10 nM, 5 nM) of peptide solutions were prepared.” left out
The obtained data by Method B-1, Method B-2, Method B-3 and Method B-4 were analyzed by follow. Single Cycle Kinetics was used as the kinetics evaluation model, and curve fitting was performed using Biacore T200 Evaluation Software Version 3.0 (Cytiva).

Q: How did the Kd turn out when B1 was run?
A: 1.5 nM

Q: With {CH2CO}-[NMeK](DOTA‑Lu″)[MeHseMe(3)]D[NMeQ][Phe(4-COOH)]II[Phe(4-CH2COOH)][NMe2Nal]G[Phe(4-(1-Me-pyrazol-4-yl))][NMeC]-NH2 (thioether N-12) [Lu-C-22] as the molecule, how does the Kd read?
A: 1.99 nM

Q: Which Kd does the source give for B2 here?
A: 7.05 nM

Q: Which Kd does the source give for {CH2CO}-[NMeQ][NMeQ]D[NMeK](DOTA‑Lu″)[Phe(4-COOH)]II[Phe(4-CH2COOH)][NMe2Nal]G[Phe(4-(1-Me-pyrazol-4-yl))][NMeC]-NH2 (thioether N-12) [Lu-C-26] here?
A: 2.52 nM

Q: {CH2CO}-[NMeK]([dE-DOTA‑Lu(3)])[NMeI]D[NMeQ][Phe(4-COOH)]II[F4aao(3)][NMeAla(isoquinolin-7-yl)]G[3Pal(6-Ph)][NMeC]-NH2 (thioether N-12) [Lu-C-33] was tested. Which Kd did it give?
A: 0.87 nM

Q: How did the Kd turn out when B3 was run?
A: 0.4 nM
